Positions count from the first letter of the chain named.
Columns and labels:
[1] = tested on: human PBMCs (CD4 T, CD8 T, NK cells); experiment: Restoration of IFN-γ and IL-2 production of NECA-suppressed T cells and NK cells (intracellular cytokine staining); assay type: cell-based; settings: NECA
Protocol: (§1) Two hundred thousand (2×10^5) human peripheral blood mononuclear cells (PBMCs) human PBMC in complete IMDM medium were aliquoted into each well in a 96-well plate and the cells in the 96-well plate were pre-incubated with antibodies or small molecule inhibitors at indicated concentration for 90 minutes, followed by addition of T cell activator anti-CD3/28 dynabeads (Gibco, Cat #11132D) at ratio of 1:4 (Beads: PBMC, v/v) and NECA (DiscoverX, Cat #92-1191, final concentration […]). Cells were cultured in an incubator at 37° C., 5% CO2 for 24 hours. Cells were then collected and stimulated with anti-CD3/28 dynabeads in the presence of GolgiPlug™ Protein Transport Inhibitor (BD Biosciences, Cat #555028) according to manufacturer's manual for 4 hours. Thereafter, cells were incubated with human TruStain FcX block (Biolegend, Cat #422302) and True-Stain monocyte blocker (Biolegend, Cat #426103) for 15 minutes according the manufacturer's manual, and cells were then stained with surface markers PE-anti-CD4 (Biolegend, Cat #300550), PerCP-cy5.5-anti-CD8 (Biolegend, Cat #301032), APC/cy7-anti-CD3 (Biolegend, Cat #300426) and PE/cy7-anti-CD56 (Biolegend, Cat #362509), PE/cy7-anti-CD56 (Biolegend, Cat #362509), BV711-anti-CD25 (Biolegend, Cat #302636) and BV605-anti-CD69 (Biolegend, Cat #31938 After wash with FACS buffer, cells were stained with BV421-anti-IFN-γ (BD Bioscience, Cat #562988) and APC anti-IL-2 (BD Bioscience, cat #551383) using intracellular cytokine staining kit (BD Biosciences, cat #555028) following manufacturer's instruction. Stained samples were analyzed on FACSAria III machine. Data were analyzed using Flowjo software.

[2] = biological target: T1, human A2aR-expressing CHO cells (Homo sapiens, UniProt P29274); experiment: pH-sensitive dye (Zenon pHrodo iFL RED) based internalization assay; assay type: cell-based; settings: 24 hours
T1 construct: expressed in transfected cells; host or cells: CHO
Source text: The Invitrogen™ Zenon™ pHrodo™ iFL RED human IgG Labeling Reagents (Cat. Z25612) Z25612) is low-pH sensitive dye and was used to determine the internalizing properties of the exemplary anti-A2aR antibodies following manufacture's instruction. The internalization of antibodies coupled with the Zenon™ pHrodo™ iFL RED human IgG Labeling reagents increase the fluorescence signal at low pH intracellular compartment in a cell, providing a method for visualizing internalization under fluorescent microscopy.
Twenty-five microliters (25 μL) of 4× working solution of Zenon™ pHrodo™ iFL IgG Labeling Reagent were also prepared in freestyle CHO expression medium and then added to each well of a 96-well plate containing antibodies. The solutions in the 96-well plate were mixed and incubated for 5 minutes at room temperature to allow the labeling complexes to form. Afterwards, fifty microliters (50 μl) of 2×10^6/ml human A2aR-expressing CHO cells were added to each well containing labeled antibodies. Cells were then incubated with the labeling complex for 24 hours under standard cell culture conditions. Cells were analyzed under immunofluorescent microscope (Invitrogen EVOS cell imaging system M5000) to visualize the internalization of antibodies by cells. Internalization of antibody was imaged using EVOS imaging systems (Invitrogen).

[3] = tested on: human PBMCs (CD4 and CD8 T cells); experiment: Restoration of CD25 and CD69 activation markers on NECA-suppressed CD4 and CD8 T cells; assay type: cell-based
Protocol: as §1

[4] = biological target: T2, human adenosine A2A receptor (A2aR) (human, UniProt P29274 1-412); experiment: flow cytometry, HEK293-hA2aR cells, supernatant 1 ug/ml, average of quadruplicate
[5] = biological target: T2, human adenosine A2A receptor (A2aR); experiment: flow cytometry titration, HEK293-hA2aR cells, purified antibody
[6] = biological target: T2, human adenosine A2A receptor (A2aR); experiment: cell-based or functional assay
[7] = biological target: T2, human adenosine A2A receptor (A2aR); experiment: flow cytometry on PBMC, donor human 2
[8] = biological target: T2, human adenosine A2A receptor (A2aR); experiment: flow cytometry titration, HEK293-hA2aR cells, purified antibody, average of 7 repeats
[9] = biological target: cynomolgus adenosine A2A receptor (A2aR) (cynomolgus); experiment: flow cytometry on PBMC, donor Cynomolgus 2
[10] = biological target: T2, human adenosine A2A receptor (A2aR); experiment: flow cytometry on PBMC, donor human 1
[11] = biological target: cynomolgus adenosine A2A receptor (A2aR) (cynomolgus); experiment: flow cytometry on PBMC, donor Cynomolgus 1
[12] = biological target: T2, human adenosine A2A receptor (A2aR); experiment: flow cytometry, HEK293-hA2aR cells, supernatant 1 ug/ml, average of triplicate

T2 sequence (P29274 whole entry): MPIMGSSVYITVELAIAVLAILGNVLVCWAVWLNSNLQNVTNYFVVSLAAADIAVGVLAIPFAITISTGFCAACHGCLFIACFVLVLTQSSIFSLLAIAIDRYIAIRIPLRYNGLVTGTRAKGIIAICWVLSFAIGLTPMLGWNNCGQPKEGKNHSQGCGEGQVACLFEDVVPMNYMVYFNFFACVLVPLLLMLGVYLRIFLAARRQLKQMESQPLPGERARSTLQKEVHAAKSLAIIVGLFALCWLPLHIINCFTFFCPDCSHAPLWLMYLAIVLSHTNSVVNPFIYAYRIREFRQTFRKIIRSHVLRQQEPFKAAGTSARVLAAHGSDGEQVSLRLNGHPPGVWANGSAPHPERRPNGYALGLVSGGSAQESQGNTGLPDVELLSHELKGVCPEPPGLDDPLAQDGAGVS
T1 sequence (P29274 whole entry): as above

`Cc1c(C#N)cccc1-c1cc(-c2cn(Cc3cccc(C(C)(C)O)n3)nn2)nc(N)n1` [AB928] was tested, and the “% of cells IFNγ+, CD4 T cells” value ([1]; test substance 1 μg/ml) was 4.07%, the “% of cells IFNγ+, CD8 T cells” value ([1]; test substance 1 μg/ml) was 14.4% and the “% of cells IFNγ+, NK cells” value ([1]; test substance 1 μg/ml) was 15%. For the same molecule, the “% of cells IL-2+, CD4 T cells” value ([1]; test substance 1 μg/ml) was 13.1%, the “% of cells IL-2+, CD8 T cells” value ([1]; test substance 1 μg/ml) was 3.15% and the “induction of internalization (pHrodo fluorescence microscopy, FIG. 3)” value [2] was “did not induce internalization”. For the same molecule, the “% of cells CD25+, CD4 T cells” value ([3]; test substance 1 μg/ml) was 59.7%, the “% of cells CD25+, CD8 T cells” value ([3]; test substance 1 μg/ml) was 32.7% and the “% of cells CD69+, CD4 T cells” value ([3]; test substance 1 μg/ml) was 57.6%. For the same molecule, the “% of cells CD69+, CD8 T cells” value ([3]; test substance 1 μg/ml) was 55.3%.

In the case of `Cc1ccc(-c2nc(N)nc3c2nnn3Cc2cccc(CO[C@H]3CCOC3)n2)o1` [CPI-444], the “% of cells IFNγ+, CD4 T cells” value ([1]; test substance 2 μg/ml) is reported as 3.66%, the “% of cells IFNγ+, CD8 T cells” value ([1]; test substance 2 μg/ml) is reported as 11.6% and the “% of cells IFNγ+, NK cells” value ([1]; test substance 2 μg/ml) is reported as 15.1%. The “% of cells IL-2+, CD4 T cells” value ([1]; test substance 2 μg/ml) was 12.7%, the “% of cells IL-2+, CD8 T cells” value ([1]; test substance 2 μg/ml) was 3.05% and the “induction of internalization (pHrodo fluorescence microscopy, FIG. 3)” value [2] was “did not induce internalization”. The “% of cells CD25+, CD4 T cells” value ([3]; test substance 2 μg/ml) was 62.9%, the “% of cells CD25+, CD8 T cells” value ([3]; test substance 2 μg/ml) was 35.9% and the “% of cells CD69+, CD4 T cells” value ([3]; test substance 2 μg/ml) was 52.3%. The “% of cells CD69+, CD8 T cells” value ([3]; test substance 2 μg/ml) was 52.3%.

B1: 3F8-12E9 (antibody, from another filing, V domains shown)
VH: QVQLQQPGTELVKPGAPVKLSCKASGFTFTRYWMNWVKQRPGRGLEWIGRIDPSDSETHYNHKFWGKATLTVDKSSSTAYIQLNSLTSEDSAVYYCLRSLYGKGDYWGQGTTLTVSS
VL: DVLMTQTPLSLSVGLGDQASISCRSSQSIVHSNGNTYLEWYLQRPGQSPKLLIYKVSNRFSGVPDRFSGSGSGTDFTLKISRVEAEDLGVYYCYQGSHVPLTFGSGTKLEIK
B1 gave an MFI [4] of 1920 MFI, an EC50 [5] of 0.48 nM and an IC50 of blocking activity, cAMP-Glo, 300 nM NECA, HEK293-hA2aR cells, supernatant (average of triplicate) [6] of 1 nM.

B2: 3F6-9G5 (antibody, from another filing, V domains shown)
VH: B1 VH with K19R, T28A, R31S, K38R, T58A, N61H, A79V, S85G, Q109H
VL: B1 VL with G14R, I29L, S32R
For B2, the % of A2aR+ CD4+ T cells [7] was 0.48%, the % of A2aR+ CD8+ T cells [7] was 0.03% and the % of A2aR+ NK cells [7] was 0.99%. The % of A2aR+ NKT cells [7] was 0.47%, the EC50 [8] was 0.71 nM and the IC50 of blocking activity, cAMP-Glo, 300 nM NECA, HEK293-hA2aR cells, supernatant (average of triplicate) [6] was 1.3 nM. It also gave an IC50 of blocking activity, cAMP-Glo, 1.25 uM NECA, HEK293-hA2aR cells, purified antibody [6] of 0.53 nM, an IC50 of blocking activity, cAMP-Glo, 5 uM Adenosine, HEK293-hA2aR cells, purified antibody [6] of 0.93 nM and a % of A2aR+ CD4+ T cells [9] of 3.26%. The % of A2aR+ CD8+ T cells [9] was 0.14%, the % of A2aR+ NK cells [9] was 2.63% and the % of A2aR+ NKT cells [9] was 1.14%. For the same molecule, the % of A2aR+ CD4+ T cells [10] was 0.67%, the % of A2aR+ CD8+ T cells [10] was 0.06% and the % of A2aR+ NK cells [10] was 1.15%. It also gave a % of A2aR+ NKT cells [10] of 0.62%, a % of A2aR+ CD4+ T cells [11] of 1.36% and a % of A2aR+ CD8+ T cells [11] of 0.06%. For the same molecule, the % of A2aR+ NK cells [11] was 3.34%, the % of A2aR+ NKT cells [11] was 0.85% and the MFI [12] was 2040 MFI.

B3: 1B5-3D7 (antibody, from another filing, V domains shown)
VH: B1 VH with A24T, Y32F, K38R, S54Y, H59Q, G66D, K67R, A79V, N84S, L97G
VL: B1 VL with T7S, S12P, G14S, D75Y, K79R, V90I, Y94F, K108T, I111L
Work on B3 yielded an MFI [12] of 1960 MFI.
